Results published in paper PMC6750980.

Target: Hepatitis C virus p7 protein from genotype 5a (EUH1480 strain) (Hepatitis C virus genotype 5a (EUH1480 strain))
Experiment: SEC

Hepatitis C virus p7 protein from genotype 5a (EUH1480 strain) (natural protein)
stoichiometry N: 6
